These results are taken from publication PMC5663869 (2017).

One experiment concerns the target BAZ2B BRD (human, UniProt Q9UIF8 1-2168). Put plainly: ITC.
In the next experiment the target is BAZ2B PHD–BRD (human, UniProt Q9UIF8 1-2168). Put plainly: ITC.

Where no end group is shown, it is not given here.

Chain of BAZ2B PHD–BRD (Q9UIF8 whole entry): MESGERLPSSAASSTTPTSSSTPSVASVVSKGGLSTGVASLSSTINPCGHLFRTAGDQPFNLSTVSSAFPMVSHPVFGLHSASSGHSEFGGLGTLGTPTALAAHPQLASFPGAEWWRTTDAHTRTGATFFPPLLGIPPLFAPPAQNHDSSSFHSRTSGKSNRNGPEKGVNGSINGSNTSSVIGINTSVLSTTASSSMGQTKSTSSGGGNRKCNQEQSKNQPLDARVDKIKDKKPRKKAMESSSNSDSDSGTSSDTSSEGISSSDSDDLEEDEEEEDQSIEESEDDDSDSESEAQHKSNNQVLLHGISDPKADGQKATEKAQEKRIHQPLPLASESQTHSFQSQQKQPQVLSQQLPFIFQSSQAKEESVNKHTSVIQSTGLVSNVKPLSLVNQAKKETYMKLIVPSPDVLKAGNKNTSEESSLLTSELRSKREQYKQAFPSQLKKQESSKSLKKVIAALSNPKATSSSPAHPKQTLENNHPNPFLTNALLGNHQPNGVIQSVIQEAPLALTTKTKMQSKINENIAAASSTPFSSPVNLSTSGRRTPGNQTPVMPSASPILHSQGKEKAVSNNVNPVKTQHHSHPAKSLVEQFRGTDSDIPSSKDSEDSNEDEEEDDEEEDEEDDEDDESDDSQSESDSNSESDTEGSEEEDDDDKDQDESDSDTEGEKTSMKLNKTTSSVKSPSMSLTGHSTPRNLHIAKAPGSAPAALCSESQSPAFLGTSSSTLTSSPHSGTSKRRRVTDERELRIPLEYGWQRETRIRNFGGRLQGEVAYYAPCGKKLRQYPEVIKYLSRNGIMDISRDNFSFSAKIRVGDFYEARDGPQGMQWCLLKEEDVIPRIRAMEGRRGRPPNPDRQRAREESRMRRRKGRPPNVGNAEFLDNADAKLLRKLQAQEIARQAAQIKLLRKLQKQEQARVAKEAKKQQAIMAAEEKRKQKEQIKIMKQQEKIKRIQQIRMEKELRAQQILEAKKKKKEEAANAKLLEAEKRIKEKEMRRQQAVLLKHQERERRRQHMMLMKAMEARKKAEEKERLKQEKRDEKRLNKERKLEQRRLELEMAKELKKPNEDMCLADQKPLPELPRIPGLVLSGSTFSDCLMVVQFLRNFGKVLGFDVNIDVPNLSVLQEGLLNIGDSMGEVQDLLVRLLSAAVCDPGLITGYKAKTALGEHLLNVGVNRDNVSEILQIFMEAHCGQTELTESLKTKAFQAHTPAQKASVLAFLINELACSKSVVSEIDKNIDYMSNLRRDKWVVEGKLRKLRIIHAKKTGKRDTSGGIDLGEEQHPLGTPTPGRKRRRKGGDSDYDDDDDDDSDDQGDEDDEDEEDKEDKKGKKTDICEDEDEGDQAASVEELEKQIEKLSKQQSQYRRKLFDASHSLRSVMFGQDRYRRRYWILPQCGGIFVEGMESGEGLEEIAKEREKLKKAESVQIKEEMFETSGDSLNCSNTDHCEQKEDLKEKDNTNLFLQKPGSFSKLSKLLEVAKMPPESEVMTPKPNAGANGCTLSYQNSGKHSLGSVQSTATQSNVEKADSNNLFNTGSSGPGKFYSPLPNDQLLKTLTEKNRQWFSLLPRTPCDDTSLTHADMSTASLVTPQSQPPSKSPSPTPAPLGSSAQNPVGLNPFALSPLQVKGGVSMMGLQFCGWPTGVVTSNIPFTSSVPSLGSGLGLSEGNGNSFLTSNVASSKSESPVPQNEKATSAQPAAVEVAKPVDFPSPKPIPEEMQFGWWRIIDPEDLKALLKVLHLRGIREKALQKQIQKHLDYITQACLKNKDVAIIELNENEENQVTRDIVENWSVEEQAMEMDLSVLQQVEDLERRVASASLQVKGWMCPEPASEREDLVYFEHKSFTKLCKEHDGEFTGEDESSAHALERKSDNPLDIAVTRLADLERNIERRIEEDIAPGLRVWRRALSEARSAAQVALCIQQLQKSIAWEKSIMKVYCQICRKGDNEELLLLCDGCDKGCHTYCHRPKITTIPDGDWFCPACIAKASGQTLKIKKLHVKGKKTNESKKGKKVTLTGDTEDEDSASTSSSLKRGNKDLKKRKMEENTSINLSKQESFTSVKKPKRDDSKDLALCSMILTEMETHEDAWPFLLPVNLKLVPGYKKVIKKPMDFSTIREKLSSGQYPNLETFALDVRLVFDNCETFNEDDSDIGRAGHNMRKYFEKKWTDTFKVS
Chain of BAZ2B BRD (Q9UIF8 whole entry): as above

For TGGK(Ac)APRKQLA [histone H3(11–21aa)K14ac peptide], the Kd is 8.2 µM with BAZ2B BRD and 10 µM with BAZ2B PHD–BRD.
